In patent US20080095767A1 (PEPTECH, published 2008):

T1: rat MOG (myelin-oligodendrocyte glycoprotein) (rat, UniProt Q63345 28-245)
T1 construct: mature; Endogenous protein in cleared rat spinal cord lysate, run on SDS-PAGE and blotted; It was identified only by its size
T1 sequence (looked up): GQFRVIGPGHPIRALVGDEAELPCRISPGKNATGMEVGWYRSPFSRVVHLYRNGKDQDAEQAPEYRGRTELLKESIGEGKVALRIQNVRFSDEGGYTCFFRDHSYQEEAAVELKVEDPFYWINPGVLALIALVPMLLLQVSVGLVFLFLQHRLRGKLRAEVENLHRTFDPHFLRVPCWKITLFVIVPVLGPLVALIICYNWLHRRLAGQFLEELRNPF

B1: AB138 (MOG specific marmoset derived variable region-human constant region chimera) (antibody, human IgG1, kappa, V domains shown)
VH: QVQLVQSGAEVKKPGASVKVSCKASGYTFTSYAISWARQPPGQGLEWMGAFDPEYGSTTYAQKFQGRVTMTADTSTSTAYMELSSLRPEDTAVYYCARDVNFGNYFDYWGQGTLVTVSS
VL: ELVMTQSPATLSLSPGERATVSCRAGQSVSYYLAWYQQKPGQAPRLLIYGASTRATGIPARFSGSRSGTDFTLTISSLEPEDFAVYYCQQYSSWPPTFGQGTKLEIKR
notes: Chimeric antibody with the variable regions of the marmoset anti-MOG antibody (M26) and human IgG1/kappa constant regions
B2: engineered monoclonal antibody AB197 (antibody, V domains shown)
VH: QVQLVQSGAELKKPGASVKVSCKASGYAFTNYLIEWVRQPPGQGLEWIGVINPGSGSTNYNEKFKDKATLTADKSSSTAYMELSSLRPEDTAVYYCARDYGYDGMDYWGQGTLVTVS
VL: ELVMTQSPATLSLSPGERATVSCRASKSVSTSGYSYMHWYQQKPGQAPRLLIYLASNLESGVPARFSGSRSGTDFTLTISSLEPEDFAVYYCQHSRELPLTFGQGTKLEIKR
B3: murine monoclonal antibody AB164 (antibody, V domains shown)
VH: QVQLQQSGAELVRPGTSVKVSCKASGYAFTNYLIEWVKQRPGQGLEWIGVINPGSGSTNYNEKFKDKATLTADKSSSTAYMQLSSLTSDDSAVYFCVRDYGYDGMDYWGQGTSVTVS
VL: DIVLTQSPASLAVSLGQRATISCRASKSVSTSGYSYMHWYQQKPGQPPKLLIYLASNLESGVPARFSGSGSGTDFTLNIHPVEEEDAATYYCQHSRELPLTFGAGTKLELKR
notes: Fully murine antibody from a hybridoma
B4: AB103 (anti-TNFα murine variable region-human constant region chimera) (antibody, V domains shown)
VH: QVQLQQSGAELVRPGTSVKVSCKASGYAFTNYLIEWVKQRPGQGLEWIGVINPGSGSTNYNEKFKDKATLTADKSSSTAYMQLSSLTSDDSAVYFCVRDYGYDGMDYWGQGTSVTVSS
VL: B3 VL

Experiments:
[1] = biological target: T1, rat MOG (myelin-oligodendrocyte …); assay: Western blot on rat spinal cord lysate
Method: The ability of AB138 to retain binding to the antigen of M26, rat MOG (myelin-oligodendrocyte glycoprotein), was investigated by Western Blot. 130 mg of rat spinal cord (IMVS, Australia) was homogenized in 1.8 ml CelLytic M Cell Lysis Reagent (SIGMA, C2978) and incubated for 30 minutes at 4° C. Further homogenization was performed by drawing the lysate through a 27 g ½ needle several times followed by centrifugation at 4° C. and 13000 g for 30 minutes. The pellet and supernatant was diluted into SDS-PAGE sample buffer (125 mM Tris-HCl pH 6.8, 5% SDS, 0.25% bromophenol blue, 25% glycerol). Along with this 200 μl CHOK1SV cells at 1×10⁶ viable cells per ml were spun down at 13000×g at 4° C. for 1 minute and resuspended in 200 μl CelLytic M Cell Lysis Reagent (SIGMA). Following centrifugation at 4° C. and 13000×g for 30 minutes the supernatant was mixed with the appropriate amount of SDS-PAGE sample buffer. All samples, along with a sample of molecular weight markers, were run on a 4-20% Novex pre-cast gel (Invitrogen, Australia) for 2 hours at 120V. Proteins were then transferred to PVDF (BioRad, Australia) using a western blot apparatus in 1×Tris-Glycine Buffer with 20% methanol (BioRad, Cat 161+-0771) at 4° C. at 250 mA for 2 hours. […] Following washing, bound antibody was detected using the ECL Western Blotting Analysis System, (Amersham Biosciences Cat: RPN2109). […]

[2] = biological target: T2, human TNF-α (Peprotech Cat No: 300-01A) (human, UniProt P01375 77-233); assay: cell-based or functional assay
T2 sequence (P01375 77-233 limits assumed): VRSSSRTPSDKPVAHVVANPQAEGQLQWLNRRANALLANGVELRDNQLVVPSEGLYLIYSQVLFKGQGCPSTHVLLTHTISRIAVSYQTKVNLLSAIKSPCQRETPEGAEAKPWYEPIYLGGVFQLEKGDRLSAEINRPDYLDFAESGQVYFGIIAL

[3] = biological target: T2, human TNF-α (Peprotech Cat No: 300-01A); assay: ELISA, TNF-α coated on the plate
Method: TNF-α (Peprotech Cat No: 300-01A) was diluted to 1 μg/mL in carbonate coating buffer ([…] pH 9.6). 100 μl of this solution was added to each well of a 96 well plate and incubated at 4° C. overnight in a humidified container. The plate was then washed three times with wash buffer (0.01M PBS pH 7.2, 0.05% Tween-20) and then three times with 0.01M PBS pH 7.2. The wells were then blocked by adding 200 μL blocking buffer (1% w/v BSA in 0.01M PBS pH 7.2) to each well and incubating the plate at 25° C., in a humidified container, for 1 hour. The antibody was diluted in antibody diluent (1% w/v BSA, 0.05% Tween-20 in 0.01M PBS pH 7.2) sufficient to generate a titration curve covering the ranges 6.00 μg/mL to 0.0578 ng/mL. The wells were incubated with the antibody for 1 hour at 25° C. The plate was then washed as previously described. 100 μL of Anti-IgG H+L antibody HRP conjugate (Zymed, Cat No: 81-71200) at 1:2000 in antibody diluent was used to detect bound AB197 and AB103. 100 μL of Anti-murine immunoglobulin antibody HRP conjugate (Dako, Cat No: P0260) at 1:2000 in antibody diluent was used to detect bound AB164. Wells with antibody diluent only were used to measure the background absorbance. After incubation at 25° C., in a humidified container, for 1 hour the plate was washed again as previously described. 100 μL TMB substrate solution (Zymed, Cat No: 00-2023) was added to each well and the colour allowed to develop for 4 min. 100 μL of 1M HCl was added to terminate the colour development reaction and absorbance was determined at 450 nm (ref. 620 nm)

| Binder | binding result [1] | EC-50 (µg/ml), neutralisation of TNF-α-induced L-929 cell cytotoxicity [2] [µg/mL] | EC50 [3] [µg/mL] |
| --- | --- | --- | --- |
| B1 | binds | – | – |
| B2 | – | 0.41 | 0.68 |
| B3 | – | 0.1 | 0.45 |
| B4 | – | 0.1 | 0.19 |
